Experimental data as given in patent US9493781B2, “Synthetic brassica-derived chloroplast transit peptides” (DOW AGROSCIENCES LLC, priority 2012, dated 2016).

Tested on: Arabidopsis
Experiment: dgt-28, dgt-32, dgt-33, dgt-3, dgt-7 transformed Arabidopsis (T1, T2, T3) response to postemergence glyphosate, % visual injury
Format: in vivo, Arabidopsis thaliana
Details: 14 days after application
Text: Transgenic T1 Arabidopsis plants containing the dgt-28 transgene were sprayed with differing rates of glyphosate. Elevated rates were applied in this study to determine the relative levels of resistance (105, 420, 1,680 or 3,360 g ae/ha). A typical 1× usage rate of glyphosate that will control non-transformed Arabidopsis is 420 g ae/ha. […] The T1 Arabidopsis plants that were used in this study were variable copy number for the dgt-28 transgene. The low copy dgt-28 T1 Arabidopsis plants were self-pollinated and used to produce T2 plants.
Results of Glyphosate Selection of Transformed dgt-28 Arabidopsis Plants. The Arabidopsis T1 transformants were first selected from the background of untransformed seed using a glufosinate selection scheme. Three flats or 30,000 seed were analyzed for each T1 construct. The T1 plants selected above were molecularly characterized and representative plants with variable copy number were subsequently transplanted to individual pots and sprayed with various rates of commercial glyphosate as previously described. The response of these plants is presented in terms of % visual injury 2 weeks after treatment (WAT). […] An arithmetic mean and standard deviation is presented for each construct used for Arabidopsis transformation. The range in individual response is also indicated in the last column for each rate and transformation. Wild-type, non-transformed Arabidopsis (c.v. Columbia) served as a glyphosate sensitive control.
T2Arabidopsis Data. The second generation plants (T2) of selected T1 Arabidopsis events which contained low copy numbers of the dgt-28 transgene were further characterized for glyphosate tolerance. Glyphosate was applied as described previously. The response of the plants is presented in terms of % visual injury 2 weeks after treatment (WAT). […] An arithmetic mean and standard deviation are presented for each construct used for Arabidopsis transformation. The range in individual response is also indicated in the last column for each rate and transformation. Wild-type, non-transformed Arabidopsis (cv. Columbia) served as a glyphosate sensitive control. In the T2 generation hemizygous and homozygous plants were available for testing for each event and therefore were included for each rate of glyphosate tested. Hemizygous plants contain two different alleles at a locus as compared to homozygous plants which contain the same two alleles at a locus. Variability of response to glyphosate is expected in the T2 generation as a result of the difference in gene dosage for hemizygous as compared to homozygous plants. The variability in response to glyphosate is reflected in the standard deviation and range of response.
T3 Arabidopsis Data. The third generation plants (T3) of selected T2 Arabidopsis events which contained low copy numbers of the dgt-28 transgene were further characterized for glyphosate tolerance. […] Glyphosate was applied as described previously. The response of the plants is presented in terms of % visual injury 2 weeks after treatment (WAT). […] An arithmetic mean and standard deviation are presented for each construct used for Arabidopsis transformation. The range in individual response is also indicated in the last column for each rate and transformation. Wild-type, non-transformed Arabidopsis (cv. Columbia) served as a glyphosate-sensitive control.

[1] = Table 8, T1 Arabidopsis, 105 g ae/ha glyphosate
[2] = Table 8, T1 Arabidopsis, 420 g ae/ha glyphosate
[3] = Table 8, T1 Arabidopsis, 1680 g ae/ha glyphosate
[4] = Table 8, T1 Arabidopsis, 3360 g ae/ha glyphosate
[5] = Table 10, T1 Arabidopsis, 1,680 g ae/ha glyphosate

B1: pDAB107527: TraP4 v2 - dgt-28 v5: binary construct TraP4 v2:dgt-28 v5 (SEQ ID NO:32) (nucleic acid)
DNA: ATGCTTGCTAGACAAGGTGGAAGTCTGAGAGCTTCTCAATGCAACGCTGGACTTGCTAGAAGAGTTGAAGTTGGTGCTCTTGTTGTTCCTAGACCTATCTCTGTTAACGACGTTGTTCCTCACGTTTACTCTGCTCCACTTTCTGTTGCTAGAAGGTCTTGCTCTAAGTCCTCCATTAGGTCCACTAGAAGGCTTCAAACTACTGTGTGCTCTGCTGCAAGAGGGATGCCAGCCTTGTCTTTACCTGGATCAAAGAGTATCACAGCTAGGGCACTCTTTCTTGCTGCTGCTGCTGATGGGGTTACTACTTTGGTGAGGCCATTGAGAAGTGACGACACAGAAGGATTCGCTGAGGGGTTAGTTCGTTTAGGCTATCGTGTAGGGAGGACACCCGATACTTGGCAAGTCGATGGCAGACCACAAGGACCAGCAGTGGCTGAGGCTGACGTCTACTGTAGAGACGGAGCAACCACCGCTAGATTCTTGCCAACCTTAGCAGCTGCTGGTCACGGAACATACAGATTTGATGCTTCACCACAGATGAGGAGACGTCCTCTTTTGCCCTTAAGCAGAGCCTTGAGGGATTTGGGTGTCGATCTTAGACACGAAGAAGCTGAAGGTCATCACCCTCTGACTGTCCGTGCTGCTGGGGTTGAAGGAGGAGAGGTTACTTTGGATGCTGGTCAGTCAAGTCAGTATCTCACTGCCTTGTTGCTCCTTGGTCCCCTTACAAGACAAGGACTGAGGATAAGGGTTACTGATTTGGTGTCAGCACCATACGTGGAGATTACGCTTGCAATGATGAGGGCTTTCGGAGTTGAAGTGGCAAGGGAGGGAGATGTGTTCGTTGTTCCACCTGGTGGATATCGTGCAACTACGTATGCTATAGAACCCGACGCAAGTACTGCTTCTTACTTCTTCGCAGCTGCTGCTTTGACTCCTGGAGCTGAAGTGACTGTACCTGGGTTAGGCACGGGAGCACTTCAAGGAGATTTGGGATTTGTAGATGTCTTAAGGAGAATGGGAGCCGAGGTGTCCGTAGGAGCTGATGCAACCACTGTTAGAGGAACTGGTGAATTGCGTGGCCTTACAGCCAACATGAGAGACATAAGTGATACGATGCCGACCCTCGCTGCAATAGCACCCTTTGCTAGTGCTCCAGTTAGAATCGAGGATGTTGCCAACACTCGTGTCAAAGAATGTGACAGACTTGAGGCTTGTGCAGAGAACCTTAGGAGGTTGGGAGTAAGGGTTGCAACGGGTCCGGACTGGATTGAGATACACCCTGGTCCAGCTACTGGTGCTCAAGTCACAAGCTATGGTGATCACAGAATTGTGATGTCATTTGCAGTGACTGGACTTCGTGTGCCTGGGATCAGCTTCGACGACCCTGGCTGTGTTCGTAAGACTTTTCCTGGGTTTCACGAGGCTTTCGCAGAATTGAGGCGTGGCATTGGGAGCTGA
modifications: In-frame fusion of dgt-28 v5 and TraP4 v2
[1]
  % Injury Ave: 3.8%
  % Injury Range (%): 0-15%
  No. plants with 20-40% injury: 0
  No. plants with <20% injury: 4
  No. plants with >40% injury: 0
[2]
  % Injury Ave: 28.8%
  % Injury Range (%): 0-65%
  No. plants with 20-40% injury: 1
  No. plants with <20% injury: 2
  No. plants with >40% injury: 1
[3]
  % Injury Ave: 55.0%
  % Injury Range (%): 35-85%
  No. plants with 20-40% injury: 2
  No. plants with <20% injury: 0
  No. plants with >40% injury: 2
[4]
  % Injury Ave: 43.8%
  % Injury Range (%): 30-70%
  No. plants with 20-40% injury: 2
  No. plants with <20% injury: 0
  No. plants with >40% injury: 2
[5]
  % Injury Ave: 55.0%
  % Injury Range (%): 35-85%
  No. plants with 20-40% injury: 2
  No. plants with <20% injury: 0
  No. plants with >40% injury: 2
